Reference: the supplement of paper PMC10567573

B1: CPOX (parent)
chain: HAPTIHFNYRYFEVEEADGNKQWW

Variants of: B1
Experiment: protein stability index of a GFP-peptide fusion (GPS, HEK-293T) (PSI 1-6); higher = more stable
Details: c terminus: a fixed tail appended
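Also: lentivirally expressed fusions sorted by FACS into six bins by GFP to DsRed ratio, PSI derived from sequencing read proportions per bin multiplied by bin number.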

Variant | protein stability index
HAPTIHFNYRYFEVEEADCNKQWW [G19C] | 1.97
HAPTIHFNYRYFEVEEADDNKQWW [G19D] | 3.04
HAPTIHFNYRYFEVEEADENKQWW [G19E] | 2.48
HAPTIHFNYRYFEVEEADFNKQWW [G19F] | 2.46
HAPTIHFNYRYFEVEEADHNKQWW [G19H] | 1.8
HAPTIHFNYRYFEVEEADINKQWW [G19I] | 2.07
HAPTIHFNYRYFEVEEADKNKQWW [G19K] | 2.17
HAPTIHFNYRYFEVEEADLNKQWW [G19L] | 1.87
HAPTIHFNYRYFEVEEADMNKQWW [G19M] | 2.06
HAPTIHFNYRYFEVEEADNNKQWW [G19N] | 2.22
HAPTIHFNYRYFEVEEADPNKQWW [G19P] | 2.04
HAPTIHFNYRYFEVEEADQNKQWW [G19Q] | 2.11
HAPTIHFNYRYFEVEEADRNKQWW [G19R] | 2.25
HAPTIHFNYRYFEVEEADSNKQWW [G19S] | 2.19
HAPTIHFNYRYFEVEEADTNKQWW [G19T] | 2.26
HAPTIHFNYRYFEVEEADVNKQWW [G19V] | 2.11
HAPTIHFNYRYFEVEEADWNKQWW [G19W] | 1.79
HAPTIHFNYRYFEVEEADYNKQWW [G19Y] | 3.23
HAPTIHFNYRYFEVEEADGAKQWW [N20A] | 1.76
HAPTIHFNYRYFEVEEADGCKQWW [N20C] | 1.87
HAPTIHFNYRYFEVEEADGDKQWW [N20D] | 2.12
HAPTIHFNYRYFEVEEADGEKQWW [N20E] | 2.75
HAPTIHFNYRYFEVEEADGFKQWW [N20F] | 1.07
HAPTIHFNYRYFEVEEADGGKQWW [N20G] | 2.38

Variant | protein stability index
HAPTIHFNYRYFEVEEADGHKQWW [N20H] | 2.38
HAPTIHFNYRYFEVEEADGIKQWW [N20I] | 2.34
HAPTIHFNYRYFEVEEADGKKQWW [N20K] | 3.29
HAPTIHFNYRYFEVEEADGLKQWW [N20L] | 2.12
HAPTIHFNYRYFEVEEADGMKQWW [N20M] | 1.32
HAPTIHFNYRYFEVEEADGPKQWW [N20P] | 1.98
HAPTIHFNYRYFEVEEADGQKQWW [N20Q] | 2.95
HAPTIHFNYRYFEVEEADGRKQWW [N20R] | 2.46
HAPTIHFNYRYFEVEEADGSKQWW [N20S] | 2.08
HAPTIHFNYRYFEVEEADGTKQWW [N20T] | 2.85
HAPTIHFNYRYFEVEEADGVKQWW [N20V] | 2.27
HAPTIHFNYRYFEVEEADGWKQWW [N20W] | 1.88
HAPTIHFNYRYFEVEEADGYKQWW [N20Y] | 1.66
HAPTIHFNYRYFEVEEADGNAQWW [K21A] | 2.44
HAPTIHFNYRYFEVEEADGNCQWW [K21C] | 2.45
HAPTIHFNYRYFEVEEADGNDQWW [K21D] | 2.52
HAPTIHFNYRYFEVEEADGNEQWW [K21E] | 2.53
HAPTIHFNYRYFEVEEADGNFQWW [K21F] | 1.6
HAPTIHFNYRYFEVEEADGNGQWW [K21G] | 2.44
HAPTIHFNYRYFEVEEADGNHQWW [K21H] | 2.6
HAPTIHFNYRYFEVEEADGNIQWW [K21I] | 2.25
HAPTIHFNYRYFEVEEADGNLQWW [K21L] | 1.74
HAPTIHFNYRYFEVEEADGNMQWW [K21M] | 1.54
HAPTIHFNYRYFEVEEADGNNQWW [K21N] | 2.22

Variant | protein stability index
HAPTIHFNYRYFEVEEADGNPQWW [K21P] | 2.25
HAPTIHFNYRYFEVEEADGNQQWW [K21Q] | 2.67
HAPTIHFNYRYFEVEEADGNRQWW [K21R] | 2.43
HAPTIHFNYRYFEVEEADGNSQWW [K21S] | 1.99
HAPTIHFNYRYFEVEEADGNTQWW [K21T] | 1.53
HAPTIHFNYRYFEVEEADGNVQWW [K21V] | 2.1
HAPTIHFNYRYFEVEEADGNWQWW [K21W] | 1.89
HAPTIHFNYRYFEVEEADGNYQWW [K21Y] | 1.95
HAPTIHFNYRYFEVEEADGNKAWW [Q22A] | 1.98
HAPTIHFNYRYFEVEEADGNKCWW [Q22C] | 1.96
HAPTIHFNYRYFEVEEADGNKDWW [Q22D] | 3.12
HAPTIHFNYRYFEVEEADGNKEWW [Q22E] | 3.35
HAPTIHFNYRYFEVEEADGNKFWW [Q22F] | 1.67
HAPTIHFNYRYFEVEEADGNKGWW [Q22G] | 2.46
HAPTIHFNYRYFEVEEADGNKHWW [Q22H] | 2.03
HAPTIHFNYRYFEVEEADGNKIWW [Q22I] | 2.3
HAPTIHFNYRYFEVEEADGNKLWW [Q22L] | 2.01
HAPTIHFNYRYFEVEEADGNKMWW [Q22M] | 1.76
HAPTIHFNYRYFEVEEADGNKNWW [Q22N] | 2.19
HAPTIHFNYRYFEVEEADGNKPWW [Q22P] | 2.56
HAPTIHFNYRYFEVEEADGNKRWW [Q22R] | 2.5
HAPTIHFNYRYFEVEEADGNKSWW [Q22S] | 1.59
HAPTIHFNYRYFEVEEADGNKTWW [Q22T] | 2.27
HAPTIHFNYRYFEVEEADGNKVWW [Q22V] | 1.9

Variant | protein stability index
HAPTIHFNYRYFEVEEADGNKWWW [Q22W] | 2
HAPTIHFNYRYFEVEEADGNKYWW [Q22Y] | 2.5
HAPTIHFNYRYFEVEEADGNKQAW [W23A] | 3.94
HAPTIHFNYRYFEVEEADGNKQCW [W23C] | 2.07
HAPTIHFNYRYFEVEEADGNKQDW [W23D] | 4.27
HAPTIHFNYRYFEVEEADGNKQEW [W23E] | 4.22
HAPTIHFNYRYFEVEEADGNKQFW [W23F] | 2.04
HAPTIHFNYRYFEVEEADGNKQGW [W23G] | 2.8
HAPTIHFNYRYFEVEEADGNKQHW [W23H] | 3.06
HAPTIHFNYRYFEVEEADGNKQIW [W23I] | 2.58
HAPTIHFNYRYFEVEEADGNKQKW [W23K] | 3.35
HAPTIHFNYRYFEVEEADGNKQLW [W23L] | 2.73
HAPTIHFNYRYFEVEEADGNKQMW [W23M] | 3.04
HAPTIHFNYRYFEVEEADGNKQNW [W23N] | 3.71
HAPTIHFNYRYFEVEEADGNKQPW [W23P] | 3.34
HAPTIHFNYRYFEVEEADGNKQQW [W23Q] | 3.38
HAPTIHFNYRYFEVEEADGNKQRW [W23R] | 3.03
HAPTIHFNYRYFEVEEADGNKQSW [W23S] | 3.19
HAPTIHFNYRYFEVEEADGNKQTW [W23T] | 2.63
HAPTIHFNYRYFEVEEADGNKQVW [W23V] | 2.36
HAPTIHFNYRYFEVEEADGNKQYW [W23Y] | 2.33
HAPTIHFNYRYFEVEEADGNKQWA [W24A] | 3.17
